Experimental data from paper PMC5703498, “Plant-type phytoene desaturase: Functional evaluation of structural implications” (PLoS ONE, 2017).

Target: the molecule itself
Assay: SEC; gel permeation chromatography (GPC) of the purified protein on a Superose 6 10/300 GL column, elution monitored at 280 nm, carried out as in ref. 6

| Protein | binding result |
| --- | --- |
| Oryza sativa phytoene desaturase with C-terminal His6 (OsPDS-His6), wild type (enzyme, UniProt A2XDA1 88-578, looked up, residue numbers count on the immature protein A2XDA1.2 including the transit peptide; the GPC done here is described only as 'homooligomer'; Cloned through an NdeI site, so a start methionine probably precedes residue 88 (surmised); also called rice PDS-His6; wild type PDS; not shown: His6, C-terminal, kept) AGQLSSFFRNSEQPTKPLQVVIAGAGLAGLSTAKYLADAGHKPILLEARDVLGGKIAAWKDEDGDWYETGLHIFFGAYPNIQNLFGELGINDRLQWKEHSMIFAMPNKPGEFSRFDFPETLPAPLNGIWAILRNNEMLTWPEKVKFALGLLPAMVGGQAYVEAQDGFTVSEWMKKQGVPDRVNDEVFIAMSKALNFINPDELSMQCILIALNRFLQEKHGSKMAFLDGNPPERLCMPIVDHVRSLGGEVRLNSRIQKIELNPDGTVKHFALTDGTQITGDAYVFATPVDILKLLVPQEWKEISYFKKLEKLVGVPVINVHIWFDRKLKNTYDHLLFSRSSLLSVYADMSVTCKEYYDPNRSMLELVFAPAEEWVGRSDTEIIEATMQELAKLFPDEIAADQSKAKILKYHVVKTPRSVYKTIPDCEPCRPLQRSPIEGFYLAGDYTKQKYLASMEGAVLSGKLCAQSVVEDYKMLSRRSLKSLQSEVPVAS | binds |
| Oryza sativa phytoene desaturase Arg300Ser mutant (Arg300Ser PDS) (enzyme, UniProt A2XDA1 88-578, looked up, residue numbers count on the immature protein A2XDA1.2 including the transit peptide; Same construct as m1 apart from the mutation; about 70% in the FAD holo form, like the wild type; also called mutant enzyme Arg300Ser; source: E. coli, purified) AGQLSSFFRNSEQPTKPLQVVIAGAGLAGLSTAKYLADAGHKPILLEARDVLGGKIAAWKDEDGDWYETGLHIFFGAYPNIQNLFGELGINDRLQWKEHSMIFAMPNKPGEFSRFDFPETLPAPLNGIWAILRNNEMLTWPEKVKFALGLLPAMVGGQAYVEAQDGFTVSEWMKKQGVPDRVNDEVFIAMSKALNFINPDELSMQCILIALNSFLQEKHGSKMAFLDGNPPERLCMPIVDHVRSLGGEVRLNSRIQKIELNPDGTVKHFALTDGTQITGDAYVFATPVDILKLLVPQEWKEISYFKKLEKLVGVPVINVHIWFDRKLKNTYDHLLFSRSSLLSVYADMSVTCKEYYDPNRSMLELVFAPAEEWVGRSDTEIIEATMQELAKLFPDEIAADQSKAKILKYHVVKTPRSVYKTIPDCEPCRPLQRSPIEGFYLAGDYTKQKYLASMEGAVLSGKLCAQSVVEDYKMLSRRSLKSLQSEVPVAS | binds |
